Laboratory results reported in the Human Domainome abundance scans (Beltran et al. 2025).
± gives the uncertainty stated by the source.

Test: abundance fitness (aPCA) (normalised: wild type 0, dead -1); higher = more abundant; growth selection in yeast, the domain comes from the species named
Conditions: Homo sapiens

Going from “Scaffold attachment factor B2 R59V, Q14151” to “Scaffold attachment factor B2 R59W, Q14151”, the abundance fitness falls from -0.496 ± 0.097 to -1.25 ± 0.15.

Compared with “Scaffold attachment factor B2 S31A, Q14151”, “Scaffold attachment factor B2 S31C, Q14151” is lower in abundance fitness: -0.051 ± 0.1 for the first, -0.415 ± 0.16 for the second.

“Scaffold attachment factor B2 S31D, Q14151” and “Scaffold attachment factor B2 S31E, Q14151” are within error of each other in abundance fitness: -0.086 ± 0.12 for the first, -0.01 ± 0.092 for the second.

Going from “Scaffold attachment factor B2 S31F, Q14151” to “Scaffold attachment factor B2 S31G, Q14151”, the abundance fitness rises from -0.488 ± 0.16 to -0.208 ± 0.076.

“Scaffold attachment factor B2 S31H, Q14151” and “Scaffold attachment factor B2 S31K, Q14151” are within error of each other in abundance fitness: -0.194 ± 0.09 for the first, -0.221 ± 0.11 for the second.

“Scaffold attachment factor B2 S31L, Q14151” and “Scaffold attachment factor B2 S31M, Q14151” are within error of each other in abundance fitness: -0.312 ± 0.1 for the first, -0.341 ± 0.11 for the second.

Going from “Scaffold attachment factor B2 S31N, Q14151” to “Scaffold attachment factor B2 S31Q, Q14151”, the abundance fitness falls from -0.027 ± 0.11 to -0.311 ± 0.095.

“Scaffold attachment factor B2 S31T, Q14151” and “Scaffold attachment factor B2 S31Y, Q14151” are within error of each other in abundance fitness: -0.225 ± 0.48 for the first, -0.629 ± 0.12 for the second.

Going from “Scaffold attachment factor B2 S54A, Q14151” to “Scaffold attachment factor B2 S54C, Q14151”, the abundance fitness falls from -0.037 ± 0.077 to -0.44 ± 0.14.

“Scaffold attachment factor B2 S54D, Q14151” and “Scaffold attachment factor B2 S54E, Q14151” are within error of each other in abundance fitness: -0.1 ± 0.14 for the first, -0.038 ± 0.11 for the second.

“Scaffold attachment factor B2 S54G, Q14151” and “Scaffold attachment factor B2 S54H, Q14151” are within error of each other in abundance fitness: -0.101 ± 0.071 for the first, -0.191 ± 0.18 for the second.

“Scaffold attachment factor B2 S54I, Q14151” and “Scaffold attachment factor B2 S54K, Q14151” are within error of each other in abundance fitness: -0.003 ± 0.21 for the first, 0.031 ± 0.13 for the second.

“Scaffold attachment factor B2 S54L, Q14151” and “Scaffold attachment factor B2 S54M, Q14151” are within error of each other in abundance fitness: -0.167 ± 0.1 for the first, -0.15 ± 0.2 for the second.

Going from “Scaffold attachment factor B2 S54N, Q14151” to “Scaffold attachment factor B2 S54Q, Q14151”, the abundance fitness rises from -0.223 ± 0.12 to 0.042 ± 0.1.

“Scaffold attachment factor B2 S54R, Q14151” and “Scaffold attachment factor B2 S54T, Q14151” are within error of each other in abundance fitness: 0.071 ± 0.074 for the first, 0.073 ± 0.11 for the second.

“Scaffold attachment factor B2 S54V, Q14151” and “Scaffold attachment factor B2 S54W, Q14151” are within error of each other in abundance fitness: -0.163 ± 0.078 for the first, -0.261 ± 0.18 for the second.

“Scaffold attachment factor B2 S54Y, Q14151” and “Scaffold attachment factor B2 T27A, Q14151” are within error of each other in abundance fitness: -0.358 ± 0.27 for the first, -0.164 ± 0.1 for the second.

“Scaffold attachment factor B2 T27C, Q14151” and “Scaffold attachment factor B2 T27D, Q14151” are within error of each other in abundance fitness: -0.112 ± 0.11 for the first, 0.024 ± 0.18 for the second.

“Scaffold attachment factor B2 T27E, Q14151” and “Scaffold attachment factor B2 T27G, Q14151” are within error of each other in abundance fitness: 0.08 ± 0.21 for the first, -0.128 ± 0.094 for the second.

Going from “Scaffold attachment factor B2 T27I, Q14151” to “Scaffold attachment factor B2 T27K, Q14151”, the abundance fitness falls from -0.136 ± 0.19 to -0.658 ± 0.16.

“Scaffold attachment factor B2 T27L, Q14151” and “Scaffold attachment factor B2 T27M, Q14151” are within error of each other in abundance fitness: -0.074 ± 0.13 for the first, -0.053 ± 0.15 for the second.

“Scaffold attachment factor B2 T27Q, Q14151” and “Scaffold attachment factor B2 T27R, Q14151” are within error of each other in abundance fitness: -0.076 ± 0.19 for the first, -0.275 ± 0.096 for the second.

“Scaffold attachment factor B2 T27S, Q14151” and “Scaffold attachment factor B2 T27V, Q14151” are within error of each other in abundance fitness: -0.175 ± 0.13 for the first, -0.369 ± 0.15 for the second.

First: Scaffold attachment factor B2 T27W, Q14151
Second: Scaffold attachment factor B2 T49A, Q14151
The abundance fitness of the first is lower: -0.514 ± 0.13 for the first, -0.181 ± 0.089 for the second.

“Scaffold attachment factor B2 T49C, Q14151” and “Scaffold attachment factor B2 T49D, Q14151” are within error of each other in abundance fitness: -0.266 ± 0.12 for the first, -0.472 ± 0.13 for the second.

“Scaffold attachment factor B2 T49E, Q14151” and “Scaffold attachment factor B2 T49F, Q14151” are within error of each other in abundance fitness: -0.26 ± 0.094 for the first, -0.452 ± 0.1 for the second.

“Scaffold attachment factor B2 T49G, Q14151” and “Scaffold attachment factor B2 T49H, Q14151” are within error of each other in abundance fitness: -0.509 ± 0.075 for the first, -0.647 ± 0.18 for the second.

Compared with “Scaffold attachment factor B2 T49I, Q14151”, “Scaffold attachment factor B2 T49K, Q14151” is lower in abundance fitness: -0.401 ± 0.2 for the first, -0.788 ± 0.16 for the second.

First: Scaffold attachment factor B2 T49L, Q14151
Second: Scaffold attachment factor B2 T49M, Q14151
The abundance fitness of the first is higher: -0.155 ± 0.089 for the first, -0.606 ± 0.12 for the second.

“Scaffold attachment factor B2 T49N, Q14151” and “Scaffold attachment factor B2 T49P, Q14151” are within error of each other in abundance fitness: -0.807 ± 0.43 for the first, -0.349 ± 0.084 for the second.

Compared with “Scaffold attachment factor B2 T49Q, Q14151”, “Scaffold attachment factor B2 T49R, Q14151” is lower in abundance fitness: -0.286 ± 0.11 for the first, -0.766 ± 0.077 for the second.

“Scaffold attachment factor B2 T49S, Q14151” and “Scaffold attachment factor B2 T49V, Q14151” are within error of each other in abundance fitness: -0.159 ± 0.087 for the first, -0.201 ± 0.07 for the second.

“Scaffold attachment factor B2 T49W, Q14151” and “Scaffold attachment factor B2 T49Y, Q14151” are within error of each other in abundance fitness: -0.365 ± 0.1 for the first, -0.512 ± 0.18 for the second.

Going from “Scaffold attachment factor B2 V35A, Q14151” to “Scaffold attachment factor B2 V35C, Q14151”, the abundance fitness falls from -0.2 ± 0.074 to -0.565 ± 0.12.

First: Scaffold attachment factor B2 V35D, Q14151
Second: Scaffold attachment factor B2 V35E, Q14151
The abundance fitness of the first is lower: -0.087 ± 0.11 for the first, 0.129 ± 0.083 for the second.

“Scaffold attachment factor B2 V35F, Q14151” and “Scaffold attachment factor B2 V35G, Q14151” are within error of each other in abundance fitness: -0.448 ± 0.099 for the first, -0.351 ± 0.074 for the second.

Compared with “Scaffold attachment factor B2 V35H, Q14151”, “Scaffold attachment factor B2 V35L, Q14151” is higher in abundance fitness: -0.57 ± 0.12 for the first, -0.353 ± 0.078 for the second.

“Scaffold attachment factor B2 V35M, Q14151” and “Scaffold attachment factor B2 V35Q, Q14151” are within error of each other in abundance fitness: -0.236 ± 0.12 for the first, -0.431 ± 0.1 for the second.

First: Scaffold attachment factor B2 V35R, Q14151
Second: Scaffold attachment factor B2 V35S, Q14151
The abundance fitness of the first is lower: -0.438 ± 0.067 for the first, -0.184 ± 0.089 for the second.

Going from “Scaffold attachment factor B2 V35T, Q14151” to “Scaffold attachment factor B2 V35W, Q14151”, the abundance fitness falls from -0.075 ± 0.084 to -0.684 ± 0.083.

Going from “Scaffold attachment factor B2 V55A, Q14151” to “Scaffold attachment factor B2 V55C, Q14151”, the abundance fitness falls from -0.052 ± 0.095 to -0.294 ± 0.12.

“Scaffold attachment factor B2 V55D, Q14151” and “Scaffold attachment factor B2 V55E, Q14151” are within error of each other in abundance fitness: -0.007 ± 0.1 for the first, 0.086 ± 0.097 for the second.

“Scaffold attachment factor B2 V55F, Q14151” and “Scaffold attachment factor B2 V55G, Q14151” are within error of each other in abundance fitness: -0.748 ± 0.29 for the first, -0.438 ± 0.076 for the second.

“Scaffold attachment factor B2 V55H, Q14151” and “Scaffold attachment factor B2 V55I, Q14151” are within error of each other in abundance fitness: -0.583 ± 0.15 for the first, -0.668 ± 0.27 for the second.

“Scaffold attachment factor B2 V55K, Q14151” and “Scaffold attachment factor B2 V55L, Q14151” are within error of each other in abundance fitness: -0.267 ± 0.094 for the first, -0.167 ± 0.14 for the second.

Going from “Scaffold attachment factor B2 V55M, Q14151” to “Scaffold attachment factor B2 V55P, Q14151”, the abundance fitness falls from -0.02 ± 0.23 to -0.643 ± 0.13.

“Scaffold attachment factor B2 V55Q, Q14151” and “Scaffold attachment factor B2 V55R, Q14151” are within error of each other in abundance fitness: -0.173 ± 0.1 for the first, -0.326 ± 0.075 for the second.

Going from “Scaffold attachment factor B2 V55S, Q14151” to “Scaffold attachment factor B2 V55W, Q14151”, the abundance fitness falls from -0.496 ± 0.11 to -0.811 ± 0.1.

Compared with “Scaffold attachment factor B2 V55Y, Q14151”, “Scaffold attachment factor B2 V64A, Q14151” is higher in abundance fitness: -0.605 ± 0.18 for the first, -0.227 ± 0.096 for the second.

“Scaffold attachment factor B2 V64C, Q14151” and “Scaffold attachment factor B2 V64D, Q14151” are within error of each other in abundance fitness: -0.312 ± 0.14 for the first, -0.232 ± 0.18 for the second.

“Scaffold attachment factor B2 V64E, Q14151” and “Scaffold attachment factor B2 V64F, Q14151” are within error of each other in abundance fitness: -0.109 ± 0.098 for the first, -0.326 ± 0.12 for the second.

“Scaffold attachment factor B2 V64G, Q14151” and “Scaffold attachment factor B2 V64H, Q14151” are within error of each other in abundance fitness: -0.294 ± 0.091 for the first, -0.173 ± 0.1 for the second.

“Scaffold attachment factor B2 V64I, Q14151” and “Scaffold attachment factor B2 V64K, Q14151” are within error of each other in abundance fitness: -0.271 ± 0.14 for the first, -0.035 ± 0.14 for the second.

“Scaffold attachment factor B2 V64L, Q14151” and “Scaffold attachment factor B2 V64M, Q14151” are within error of each other in abundance fitness: 0.006 ± 0.098 for the first, -0.013 ± 0.13 for the second.

“Scaffold attachment factor B2 V64N, Q14151” and “Scaffold attachment factor B2 V64Q, Q14151” are within error of each other in abundance fitness: -0.418 ± 0.21 for the first, -0.141 ± 0.16 for the second.
